The target of data set [1] is T1, SPM-1 beta-lactamase (Pseudomonas aeruginosa, UniProt Q8G9Q0 29-276).
T1 sequence: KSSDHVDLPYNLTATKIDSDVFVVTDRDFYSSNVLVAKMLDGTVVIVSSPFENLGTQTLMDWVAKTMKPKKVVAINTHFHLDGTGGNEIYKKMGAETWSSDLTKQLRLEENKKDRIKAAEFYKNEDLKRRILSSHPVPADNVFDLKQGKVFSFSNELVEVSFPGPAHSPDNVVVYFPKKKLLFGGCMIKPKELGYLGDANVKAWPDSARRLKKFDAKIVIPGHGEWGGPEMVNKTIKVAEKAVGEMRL
The data set can be described thus: EMSA. Background: A gel shift assay detects complexes by their altered migration in electrophoresis.

The target in the next data set is VIM-1 beta-lactamase (UniProt A0A0F7KYQ8 21-266). The data set can be described thus: EMSA.
For another data set, the target named is IMP-1 beta-lactamase (UniProt P52699 19-246). The data set can be described thus: EMSA.
IMP-1 beta-lactamase, sequence (P52699 19-246): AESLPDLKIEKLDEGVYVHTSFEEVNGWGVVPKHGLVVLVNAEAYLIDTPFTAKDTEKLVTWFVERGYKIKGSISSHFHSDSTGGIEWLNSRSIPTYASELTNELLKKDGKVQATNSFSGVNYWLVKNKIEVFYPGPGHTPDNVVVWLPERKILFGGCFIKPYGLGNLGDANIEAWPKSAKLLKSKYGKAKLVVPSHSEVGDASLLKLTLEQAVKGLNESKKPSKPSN
The target in a further data set is NDM-1 beta-lactamase (UniProt C7C422 29-270). The data set can be described thus: EMSA.
NDM-1 beta-lactamase, sequence (C7C422 29-270): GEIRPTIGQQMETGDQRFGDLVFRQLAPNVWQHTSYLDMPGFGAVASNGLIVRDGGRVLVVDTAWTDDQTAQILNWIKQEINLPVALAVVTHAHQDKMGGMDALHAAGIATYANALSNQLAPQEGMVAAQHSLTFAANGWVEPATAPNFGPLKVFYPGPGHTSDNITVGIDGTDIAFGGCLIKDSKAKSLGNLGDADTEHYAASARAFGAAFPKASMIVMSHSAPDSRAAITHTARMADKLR
Data set [2] deals with T1, SPM-1 beta-lactamase. The data set can be described thus: NMR.

Consider 3 molecules from paper doi:10.1101/2024.08.16.608213.

Regarding GGGAGAUGCUAGAGAUUCGGUGGGACACCCGUCUCCC (XNA, 2'-fluoro at all pyrimidines (C, U)) [S25 2'-FY], the binding result was “binds” with SPM-1 beta-lactamase [1], “no binding” with VIM-1 beta-lactamase, “no binding” in the data set with IMP-1 beta-lactamase and “no binding” with NDM-1 beta-lactamase.
With GGGAGAUGCUAGAGAUUCGGUGGGACACCCGUCUCCC (structured_RNA) [S25 RNA], the binding result with SPM-1 beta-lactamase [2] is “binds”.
As for GGGAGAUGCUAGAGAUUCGGUGGGACACCCUUCUCCC (structured_RNA) [S30 RNA (S25 G31U)], the binding result with SPM-1 beta-lactamase [2] is on record as “binds”.
